Test results reported in publication PMC10932606.

Target: semiSWEET
Test: native MS

## semiSWEET (natural protein)
  percent dimer: > 95%
  stoichiometry N: 2
